Measured values as given in patent US20110256132A1 (published 2011).
Each block holds one binder with its values, some of them ahead of it.

Tests used:
[1] = biological target: T1, mature myostatin (recombinant, dimeric) (mouse polyprotein used for in-house …, UniProt O08689 268-376); experiment: BIAcore, low density myostatin surface, antibody analyte, 1:1 model
T1 construct: also called GDF-8; recombinant myostatin
T1 sequence: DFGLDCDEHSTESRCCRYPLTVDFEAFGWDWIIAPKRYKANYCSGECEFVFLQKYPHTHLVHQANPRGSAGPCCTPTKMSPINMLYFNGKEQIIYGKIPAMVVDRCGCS
Description: (§1) Purified H0L0, H1L2 and H2L2 bound recombinant myostatin by BIAcore™ Recombinant myostatin was immobilised at three different densities (low, medium and high, to give R-max values of approximately 35, 120 and 350 RU's respectively) onto a BIAcore™ chip. Antibodies were passed over at 256, 64, 16, 4 and 1 nM. 0 nM antibody was used for double referencing and data was fitted to the 1:1 model.

[2] = biological target: T1, mature myostatin (recombinant, dimeric); experiment: BIAcore, high density myostatin surface, antibody analyte, 1:1 model (poor fits)
Description: as §1

[3] = biological target: T1, mature myostatin (recombinant, dimeric); experiment: BIAcore, medium density myostatin surface, antibody analyte, 1:1 model (poor fits)
Description: as §1

[4] = biological target: T1, mature myostatin (recombinant, dimeric); experiment: cell-based or functional assay
[5] = biological target: T1, mature myostatin (recombinant, dimeric); experiment: BIAcore, low density myostatin surface, methods as in 4.3
[6] = biological target: T1, mature myostatin (recombinant, dimeric); experiment: BIAcore T100 full kinetics, high density myostatin surface, Bivalent model
Description: The CDRH3 variants were passed over all three surfaces at 256 nM, 64 nM, 16 nM, 4 nM, 1 nM with a buffer injection (i.e. 0 nM) used for double referencing, regeneration was using 100 mM phosphoric acid. The data was fitted to the Bivalent model inherent to the T100 Biacore machine and was run using HBS-EP at 25° C.

[7] = biological target: T1, mature myostatin (recombinant, dimeric); experiment: competition ELISA, biotinylated myostatin on streptavidin, competitor 10B3
Description: (§2) A 96-well ELISA plate was coated at 4° C. overnight with 2.5 μg/ml polyclonal Antibody to Myostatin (R&D Systems AF788). This plate was then washed 3-times in wash buffer (PBS, 0.1% Tween-20) and blocked for 1 hour at room temperature with block solution (PBS, 0.1% Tween-20+1% bovine serum albumin [BSA]). Then, myostatin was added at 1 μg/ml in block buffer during 1 hour followed by 3-times in wash buffer. Antibodies were then titrated out to a suitable concentration range (approximately 10 to 0.01 μg/ml), added to the plate and incubated for 1 hour at room temperature. The plate was then washed 3-times in wash buffer. An anti-human kappa light chain HRP-conjugated antibody (Sigma A7164, used according to the manufacturer's instructions) was used to detect binding of humanized or chimeric antibodies, such as 10B3 chimera (HcLc) or H0L0. The plate was then washed 3-times in wash buffer and developed with an OPD substrate (according to the manufacturer's instructions) and read at 490 nm on a plate reader.
The protocol set out in 6.7 was used but the plates were initially coated at 4° C. overnight with 5 μg/ml of streptavidin. Biotinylated myostatin was added at 0.3 μg/ml block buffer during 1 hour followed by 3-times in wash buffer. 10B3 (final concentration of 0.2 μg/ml) was added into each well and mixed with antibodies titrated out to a suitable concentration range (approximately 10 to 0.01 μg/ml). An anti-mouse HRP-conjugated antibody (DAKO P0260, used according to the manufacturer's instructions) was used to detect binding of the 10B3 antibody.

[8] = biological target: T1, mature myostatin (recombinant, dimeric); experiment: competition ELISA, myostatin captured by polyclonal antibody, competitor 10B3
Description: as §2
The protocol set out in 6.7 was used with the addition of 10B3 (final concentration of […]) to each well and mixed with the antibodies titrated out to a suitable concentration range (approximately 10 to 0.01 μg/ml). An anti-mouse HRP-conjugated antibody (DAKO P0260, used according to the manufacturer's instructions) was used to detect binding of the 10B3 antibody.

B1: H1L2 (antibody, human IgG1, kappa)
heavy: not shown
light: DIQMTQSPSSLSASVGDRVTITCKASQDINSYLSWFQQKPGKAPKSLIYRANRLVDGVPSKFSGSGSGTDYTLTISSLQPEDFATYYCLQCDEFPLTFGQGTKLEIKRTVAAPSVFIFPPSDEQLKSGTASVVCLLNNFYPREAKVQWKVDNALQSGNSQESVTEQDSKDSTYSLSSTLTLSKADYEKHKVYACEVTHQGLSSPVTKSFNRGEC
notes: Humanised, human IgG1 wild type/kappa
Kd [1]: 15.1 nM
koff [1]: 0.00332 s⁻¹
kon [1]: 220000 M⁻¹ s⁻¹
Kd [2]: 2.42 nM
koff [2]: 0.000223 s⁻¹
kon [2]: 92200 M⁻¹ s⁻¹
Kd [3]: 5.06 nM
koff [3]: 0.000693 s⁻¹
kon [3]: 137000 M⁻¹ s⁻¹

B2: H2L2 N54Q & C91S (H2L2-N54Q-C91S) (antibody, human IgG1, kappa, V domains shown)
VH: QVQLVQSGAEVKKPGASVKVSCKASGYSFTGYFMHWVRQAPGQGLEWMGNIYPYQGVSNYNQRFKARVTMTTDTSTSTAYMELRSLRSDDTAVYYCARRYYYGTGPADWYFDVWGQGTLVTVSS
VL: DIQMTQSPSSLSASVGDRVTITCKASQDINSYLSWFQQKPGKAPKSLIYRANRLVDGVPSKFSGSGSGTDYTLTISSLQPEDFATYYCLQSDEFPLTFGQGTKLEIKR
Mean IC50, A204 in vitro activity assay [4]: 10.4 nM
Kd [5]: 33.3 nM

B5: H2L2-C91S_G99D (antibody, human IgG1, kappa, name in Kabat numbering, V domains shown)
VH: QVQLVQSGAEVKKPGASVKVSCKASGYSFTGYFMHWVRQAPGQGLEWMGNIYPYNGVSNYNQRFKARVTMTTDTSTSTAYMELRSLRSDDTAVYYCARRYYYDTGPADWYFDVWGQGTLVTVSS
VL: DIQMTQSPSSLSASVGDRVTITCKASQDINSYLSWFQQKPGKAPKSLIYRANRLVDGVPSKFSGSGSGTDYTLTISSLQPEDFATYYCLQSDEFPLTFGQGTKLEIKR
fold of affinity against F100G_Y [6]: ≤ 2 fold
ranking order top (1) to bottom (5), myostatin competition ELISA [8]: 5

Continued, values first:

fold of affinity against F100G_Y [6]: ≤ 2 fold
ranking order top (1) to bottom (5), myostatin competition ELISA [7]: 5
B3: H2L2-C91S_Y96L (antibody, human IgG1, kappa, name in Kabat numbering, V domains shown)
VH: QVQLVQSGAEVKKPGASVKVSCKASGYSFTGYFMHWVRQAPGQGLEWMGNIYPYNGVSNYNQRFKARVTMTTDTSTSTAYMELRSLRSDDTAVYYCARRLYYGTGPADWYFDVWGQGTLVTVSS
VL: DIQMTQSPSSLSASVGDRVTITCKASQDINSYLSWFQQKPGKAPKSLIYRANRLVDGVPSKFSGSGSGTDYTLTISSLQPEDFATYYCLQSDEFPLTFGQGTKLEIKR

fold of affinity against F100G_Y [6]: ≤ 2 fold
B4: H2L2-C91S_G100A_K (antibody, human IgG1, kappa, V domains shown)
VH: QVQLVQSGAEVKKPGASVKVSCKASGYSFTGYFMHWVRQAPGQGLEWMGNIYPYNGVSNYNQRFKARVTMTTDTSTSTAYMELRSLRSDDTAVYYCARRYYYGTKPADWYFDVWGQGTLVTVSS
VL: DIQMTQSPSSLSASVGDRVTITCKASQDINSYLSWFQQKPGKAPKSLIYRANRLVDGVPSKFSGSGSGTDYTLTISSLQPEDFATYYCLQSDEFPLTFGQGTKLEIKR

fold of affinity against F100G_Y [6]: ≤ 2 fold
B6: H2L2-C91S_G99S (antibody, human IgG1, kappa, name in Kabat numbering, V domains shown)
VH: QVQLVQSGAEVKKPGASVKVSCKASGYSFTGYFMHWVRQAPGQGLEWMGNIYPYNGVSNYNQRFKARVTMTTDTSTSTAYMELRSLRSDDTAVYYCARRYYYSTGPADWYFDVWGQGTLVTVSS
VL: DIQMTQSPSSLSASVGDRVTITCKASQDINSYLSWFQQKPGKAPKSLIYRANRLVDGVPSKFSGSGSGTDYTLTISSLQPEDFATYYCLQSDEFPLTFGQGTKLEIKR
